Data published in publication PMC8276798, “High-Level Production of Lysine in the Yeast Saccharomyces cerevisiae by Rational Design of Homocitrate Synthase” (Applied and Environmental Microbiology, 2021).

T1: homocitrate synthase ScLys20 S385E variant (Saccharomyces cerevisiae, UniProt P48570, S385E)
T1 construct: gene LYS20; N-terminal His-tagged recombinant ScLys20
T1 sequence (P48570 1-428 S385E): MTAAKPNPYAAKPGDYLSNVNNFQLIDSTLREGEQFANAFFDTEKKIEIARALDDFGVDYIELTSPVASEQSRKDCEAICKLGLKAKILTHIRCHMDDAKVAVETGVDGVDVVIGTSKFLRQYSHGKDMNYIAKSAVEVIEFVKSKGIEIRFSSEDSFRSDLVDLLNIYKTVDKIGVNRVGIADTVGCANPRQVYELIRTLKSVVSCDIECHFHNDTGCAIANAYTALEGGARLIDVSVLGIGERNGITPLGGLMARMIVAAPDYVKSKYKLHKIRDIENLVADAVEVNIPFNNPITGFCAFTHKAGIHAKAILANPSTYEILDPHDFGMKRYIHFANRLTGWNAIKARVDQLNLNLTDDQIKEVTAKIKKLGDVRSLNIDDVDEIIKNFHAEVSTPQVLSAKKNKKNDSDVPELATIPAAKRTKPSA

T2: homocitrate synthase ScLys20 (wild type) (Saccharomyces cerevisiae, UniProt P48570)
T2 construct: gene LYS20; N-terminal His-tagged recombinant ScLys20
T2 sequence (P48570 1-428): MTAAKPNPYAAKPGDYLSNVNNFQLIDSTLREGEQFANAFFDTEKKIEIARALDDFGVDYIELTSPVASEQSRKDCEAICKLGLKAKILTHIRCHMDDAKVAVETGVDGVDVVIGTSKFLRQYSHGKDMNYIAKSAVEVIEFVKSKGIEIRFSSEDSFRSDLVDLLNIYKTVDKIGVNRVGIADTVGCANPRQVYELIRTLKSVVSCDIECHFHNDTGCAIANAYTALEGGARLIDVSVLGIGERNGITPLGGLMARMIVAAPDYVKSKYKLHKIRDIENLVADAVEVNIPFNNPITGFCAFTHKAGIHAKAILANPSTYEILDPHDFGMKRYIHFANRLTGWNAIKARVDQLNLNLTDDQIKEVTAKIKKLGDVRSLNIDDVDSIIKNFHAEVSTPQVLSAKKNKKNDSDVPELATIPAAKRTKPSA

T3: homocitrate synthase ScLys20 S385F variant (Saccharomyces cerevisiae, UniProt P48570, S385F)
T3 construct: gene LYS20; N-terminal His-tagged recombinant ScLys20
T3 sequence (P48570 1-428 S385F): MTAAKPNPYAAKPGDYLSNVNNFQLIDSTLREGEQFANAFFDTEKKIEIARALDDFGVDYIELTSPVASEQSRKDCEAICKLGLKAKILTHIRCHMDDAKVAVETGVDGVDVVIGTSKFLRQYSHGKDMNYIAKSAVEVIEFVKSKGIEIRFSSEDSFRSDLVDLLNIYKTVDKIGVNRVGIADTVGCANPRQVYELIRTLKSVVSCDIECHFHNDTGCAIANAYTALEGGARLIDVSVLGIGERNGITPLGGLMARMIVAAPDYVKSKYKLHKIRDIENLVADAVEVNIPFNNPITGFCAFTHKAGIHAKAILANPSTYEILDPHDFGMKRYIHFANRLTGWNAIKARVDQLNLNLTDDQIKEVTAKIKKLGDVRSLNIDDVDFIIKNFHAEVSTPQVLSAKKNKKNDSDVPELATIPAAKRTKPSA


Legend:
[1] = biological target: T1, homocitrate synthase ScLys20 S385E variant; assay: DCPIP-coupled HCS activity assay with purified enzyme ([…] 2-OG, […] AcCoA); assay type: biochemical
[2] = biological target: T2, homocitrate synthase ScLys20 (wild type); assay: as above; assay type: biochemical
[3] = biological target: T3, homocitrate synthase ScLys20 S385F variant; assay: as above; assay type: biochemical
[4] = substrate: CC(=O)SCCNC(=O)CCNC(=O)[C@H](O)C(C)(C)COP(=O)(O)OP(=O)(O)OC[C@H]1O[C@@H](n2cnc3c(N)ncnc32)[C@H](O)[C@@H]1OP(=O)(O)O; assay: steady-state kinetics of purified enzyme, DCPIP assay (apparent Km); assay type: biochemical, Saccharomyces cerevisiae
purified protein = substrate: O=C(O)CCC(=O)C(=O)O; assay: purified protein; conditions: active center
[5] = Arg31 interacts with 2-OG (homology model)

Molecule | IC50 [1] [µM] | IC50 [2] [µM] | IC50 [3] [µM] | Km [4] [µM] | kcat [4] [s⁻¹] | kcat/Km [4] [M⁻¹ s⁻¹] | Km (purified protein; [5]) [µM] | kcat (purified protein; [5]) [s⁻¹] | kcat/Km (purified protein; [5]) [M⁻¹ s⁻¹] | Km (purified protein) [µM] | kcat (purified protein) [s⁻¹] | kcat/Km (purified protein) [M⁻¹ s⁻¹]
NCCCC[C@H](N)C(=O)O [lysine] | 3200 ± 610 | 1000 ± 140 | 2000 ± 680 | – | – | – | – | – | – | – | – | –
homocitrate synthase ScLys20 (wild type) (Saccharomyces cerevisiae S288C) (protein, N-terminal His-tagged recombinant ScLys20) MTAAKPNPYAAKPGDYLSNVNNFQLIDSTLREGEQFANAFFDTEKKIEIARALDDFGVDYIELTSPVASEQSRKDCEAICKLGLKAKILTHIRCHMDDAKVAVETGVDGVDVVIGTSKFLRQYSHGKDMNYIAKSAVEVIEFVKSKGIEIRFSSEDSFRSDLVDLLNIYKTVDKIGVNRVGIADTVGCANPRQVYELIRTLKSVVSCDIECHFHNDTGCAIANAYTALEGGARLIDVSVLGIGERNGITPLGGLMARMIVAAPDYVKSKYKLHKIRDIENLVADAVEVNIPFNNPITGFCAFTHKAGIHAKAILANPSTYEILDPHDFGMKRYIHFANRLTGWNAIKARVDQLNLNLTDDQIKEVTAKIKKLGDVRSLNIDDVDSIIKNFHAEVSTPQVLSAKKNKKNDSDVPELATIPAAKRTKPSA | – | – | – | 24.2 ± 4.21 | 0.269 ± 0.014 | 11100 | 4600 ± 1260 | 0.287 | 62.5 | – | – | –
homocitrate synthase ScLys20 S385E variant (Saccharomyces cerevisiae S288C; S385E) (protein, N-terminal His-tagged recombinant ScLys20) MTAAKPNPYAAKPGDYLSNVNNFQLIDSTLREGEQFANAFFDTEKKIEIARALDDFGVDYIELTSPVASEQSRKDCEAICKLGLKAKILTHIRCHMDDAKVAVETGVDGVDVVIGTSKFLRQYSHGKDMNYIAKSAVEVIEFVKSKGIEIRFSSEDSFRSDLVDLLNIYKTVDKIGVNRVGIADTVGCANPRQVYELIRTLKSVVSCDIECHFHNDTGCAIANAYTALEGGARLIDVSVLGIGERNGITPLGGLMARMIVAAPDYVKSKYKLHKIRDIENLVADAVEVNIPFNNPITGFCAFTHKAGIHAKAILANPSTYEILDPHDFGMKRYIHFANRLTGWNAIKARVDQLNLNLTDDQIKEVTAKIKKLGDVRSLNIDDVDEIIKNFHAEVSTPQVLSAKKNKKNDSDVPELATIPAAKRTKPSA | – | – | – | 16.1 ± 1.62 | 0.241 ± 0.0065 | 14900 | – | – | – | 3110 ± 530 | 0.468 | 150
homocitrate synthase ScLys20 S385F variant (Saccharomyces cerevisiae S288C; S385F) (protein, N-terminal His-tagged recombinant ScLys20) MTAAKPNPYAAKPGDYLSNVNNFQLIDSTLREGEQFANAFFDTEKKIEIARALDDFGVDYIELTSPVASEQSRKDCEAICKLGLKAKILTHIRCHMDDAKVAVETGVDGVDVVIGTSKFLRQYSHGKDMNYIAKSAVEVIEFVKSKGIEIRFSSEDSFRSDLVDLLNIYKTVDKIGVNRVGIADTVGCANPRQVYELIRTLKSVVSCDIECHFHNDTGCAIANAYTALEGGARLIDVSVLGIGERNGITPLGGLMARMIVAAPDYVKSKYKLHKIRDIENLVADAVEVNIPFNNPITGFCAFTHKAGIHAKAILANPSTYEILDPHDFGMKRYIHFANRLTGWNAIKARVDQLNLNLTDDQIKEVTAKIKKLGDVRSLNIDDVDFIIKNFHAEVSTPQVLSAKKNKKNDSDVPELATIPAAKRTKPSA | – | – | – | 22.8 ± 4.88 | 0.373 ± 0.023 | 16400 | – | – | – | 1990 ± 450 | 0.483 | 243
homocitrate synthase ScLys20 S385L variant (Saccharomyces cerevisiae S288C; S385L) (protein) MTAAKPNPYAAKPGDYLSNVNNFQLIDSTLREGEQFANAFFDTEKKIEIARALDDFGVDYIELTSPVASEQSRKDCEAICKLGLKAKILTHIRCHMDDAKVAVETGVDGVDVVIGTSKFLRQYSHGKDMNYIAKSAVEVIEFVKSKGIEIRFSSEDSFRSDLVDLLNIYKTVDKIGVNRVGIADTVGCANPRQVYELIRTLKSVVSCDIECHFHNDTGCAIANAYTALEGGARLIDVSVLGIGERNGITPLGGLMARMIVAAPDYVKSKYKLHKIRDIENLVADAVEVNIPFNNPITGFCAFTHKAGIHAKAILANPSTYEILDPHDFGMKRYIHFANRLTGWNAIKARVDQLNLNLTDDQIKEVTAKIKKLGDVRSLNIDDVDLIIKNFHAEVSTPQVLSAKKNKKNDSDVPELATIPAAKRTKPSA | – | – | – | – | – | – | – | – | – | 9500 ± 1990 | 0.436 | 46
